Article PMC8399745, “Nanostructured Lipid Carriers (NLCs) for Oral Peptide Drug Delivery: About the Impact of Surface Decoration” (Pharmaceutics, 2021)

Assay: Log P octanol/water of INS and INS-SDS complexes
Assay type: physicochemical
Settings: shake-flask octanol/water (1:1), 1 mg in 1 mL, 37 °C, 500 rpm, 12 h, centrifugation, INS quantified in each phase by HPLC (214 nm); means, n = 3
Description: Log Poctanol/water of INS and INS-SDS complexes was determined using a previously described method with minor modification. Briefly, 1 mg of each product was added to 1 mL of octanol/water (1:1) (Sigma-Aldrich Chemie GmbH, Vienna, Austria). The mixtures were incubated at 37 °C while stirring at 500 rpm for 12 h. Thereafter, samples were centrifuged at 13,400 rpm for 10 min. Aliquots of 100 μL were withdrawn from each phase (octanol and water) and analyzed via HPLC after dilution with 300 μL of methanol (Sigma-Aldrich Chemie GmbH, Vienna, Austria) containing 0.1% (v/v) TFA. Log P was calculated according to the following equation: Log P=Log(Concentration of INS in octanol phase/Concentration of INS in water phase)

## Human recombinant insulin
  log Poctanol/water: −1.8
